Laboratory results from US20050079543A1 (ROCKEFELLER UNIVERSITY, published 2005).

What was measured:
[1] = target: the molecule itself; test: gel mobility shift with extracts of C84 cells
Description: (§1) Mobility shift analysis was performed with extracts from these stable cell lines (FIG. 18B). Extracts of IFN-γ-treated C84 cells produced a faster migrating gel shift band than extracts of treated C91L cells. Most importantly, extracts from IFN-γ-treated Cmx cells expressing both Stat84 and Stat91L proteins formed an additional intermediate gel shift band. Anti-91, an antiserum against the C-terminal 38 amino acids of Stat91 (12) that are absent in Stat84, specifically removed the top two shift bands seen with the Cmx extracts. Anti-91, an antiserum against amino acids 609 to 716 (15) that recognizes both Stat91L and Stat84, proteins inhibited the binding of all three shift bands. Thus, the middle band formed by extracts of the Cmx cells is clearly identified as a heterodimer of Stat84 and Stat91L. We concluded that both Stat91 and Stat84 bind DNA as homodimers and, if present in the same cell, will form heterodimers.

[2] = target: T1, Stat91L, activated (from IFN-γ-treated C91L or Cmx cells) (human, UniProt P42224 2-750, activated by IFN-γ treatment of the cells; phosphotyrosine at 701 as stated for Stat91); test: gel mobility shift with extracts of cells that express both proteins, with antisera
T1 construct: Expressed in U3A cells that lack Stat91/84; also called long form of Stat91; MNC-91L product; not shown: C-terminal tag of 34 amino acids encoded by the pMNC vector
T1 sequence: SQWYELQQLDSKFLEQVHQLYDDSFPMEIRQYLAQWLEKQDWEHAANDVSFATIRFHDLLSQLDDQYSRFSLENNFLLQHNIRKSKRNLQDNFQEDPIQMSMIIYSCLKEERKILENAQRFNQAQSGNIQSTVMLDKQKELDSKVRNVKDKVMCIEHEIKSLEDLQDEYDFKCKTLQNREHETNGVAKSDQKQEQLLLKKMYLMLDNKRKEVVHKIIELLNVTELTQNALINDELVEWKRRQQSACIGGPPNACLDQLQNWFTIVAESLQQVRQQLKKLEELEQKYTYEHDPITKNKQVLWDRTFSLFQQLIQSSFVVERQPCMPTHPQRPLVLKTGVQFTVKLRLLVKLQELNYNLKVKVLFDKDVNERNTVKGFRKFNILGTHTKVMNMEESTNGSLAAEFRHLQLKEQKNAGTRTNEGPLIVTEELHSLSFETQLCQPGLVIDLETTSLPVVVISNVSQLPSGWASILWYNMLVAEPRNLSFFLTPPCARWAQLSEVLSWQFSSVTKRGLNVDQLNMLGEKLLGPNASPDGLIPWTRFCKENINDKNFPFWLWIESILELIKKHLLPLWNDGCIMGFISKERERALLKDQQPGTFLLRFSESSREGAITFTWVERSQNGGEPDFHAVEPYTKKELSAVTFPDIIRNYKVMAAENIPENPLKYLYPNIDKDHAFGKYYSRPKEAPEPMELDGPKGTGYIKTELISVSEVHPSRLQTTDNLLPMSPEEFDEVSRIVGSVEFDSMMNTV
Description: as §1

binding result [2]: binds
B1: Stat84, activated (from IFN-γ-treated C84 or Cmx cells) (other)
chain: SQWYELQQLDSKFLEQVHQLYDDSFPMEIRQYLAQWLEKQDWEHAANDVSFATIRFHDLLSQLDDQYSRFSLENNFLLQHNIRKSKRNLQDNFQEDPIQMSMIIYSCLKEERKILENAQRFNQAQSGNIQSTVMLDKQKELDSKVRNVKDKVMCIEHEIKSLEDLQDEYDFKCKTLQNREHETNGVAKSDQKQEQLLLKKMYLMLDNKRKEVVHKIIELLNVTELTQNALINDELVEWKRRQQSACIGGPPNACLDQLQNWFTIVAESLQQVRQQLKKLEELEQKYTYEHDPITKNKQVLWDRTFSLFQQLIQSSFVVERQPCMPTHPQRPLVLKTGVQFTVKLRLLVKLQELNYNLKVKVLFDKDVNERNTVKGFRKFNILGTHTKVMNMEESTNGSLAAEFRHLQLKEQKNAGTRTNEGPLIVTEELHSLSFETQLCQPGLVIDLETTSLPVVVISNVSQLPSGWASILWYNMLVAEPRNLSFFLTPPCARWAQLSEVLSWQFSSVTKRGLNVDQLNMLGEKLLGPNASPDGLIPWTRFCKENINDKNFPFWLWIESILELIKKHLLPLWNDGCIMGFISKERERALLKDQQPGTFLLRFSESSREGAITFTWVERSQNGGEPDFHAVEPYTKKELSAVTFPDIIRNYKVMAAENIPENPLKYLYPNIDKDHAFGKYYSRPKEAPEPMELDGPKGTGYIKTELISVSEV
modifications: activated by IFN-γ treatment of the cells (tyrosine phosphorylation; Tyr-701 is stated for Stat91)
notes: Expressed in U3A cells that lack Stat91/84; also called MNC-84 product
binding result [1]: binds
